Test results from patent US20260275311, “CRISPR NUCLEASE POLYPEPTIDES AND GENE EDITING SYSTEMS COMPRISING SUCH” (ARBOR BIOTECHNOLOGIES, INC., published 2026).
Substitutions are numbered along the chain they refer to.

T1: Nuclease M E401R E401R
T1 sequence: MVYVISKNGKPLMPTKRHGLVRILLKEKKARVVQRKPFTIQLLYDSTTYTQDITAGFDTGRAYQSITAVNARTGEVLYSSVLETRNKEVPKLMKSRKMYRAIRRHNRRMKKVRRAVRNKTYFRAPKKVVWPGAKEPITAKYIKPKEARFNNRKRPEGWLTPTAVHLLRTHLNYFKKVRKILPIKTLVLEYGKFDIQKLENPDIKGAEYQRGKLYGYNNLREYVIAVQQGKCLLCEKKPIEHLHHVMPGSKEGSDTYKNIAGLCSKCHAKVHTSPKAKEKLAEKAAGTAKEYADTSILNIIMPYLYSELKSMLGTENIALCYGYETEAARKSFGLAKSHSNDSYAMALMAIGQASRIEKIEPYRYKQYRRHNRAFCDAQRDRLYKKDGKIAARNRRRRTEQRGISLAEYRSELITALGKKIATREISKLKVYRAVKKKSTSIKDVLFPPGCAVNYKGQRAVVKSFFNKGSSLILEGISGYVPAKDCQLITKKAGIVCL

T2: Nuclease K
T2 chain: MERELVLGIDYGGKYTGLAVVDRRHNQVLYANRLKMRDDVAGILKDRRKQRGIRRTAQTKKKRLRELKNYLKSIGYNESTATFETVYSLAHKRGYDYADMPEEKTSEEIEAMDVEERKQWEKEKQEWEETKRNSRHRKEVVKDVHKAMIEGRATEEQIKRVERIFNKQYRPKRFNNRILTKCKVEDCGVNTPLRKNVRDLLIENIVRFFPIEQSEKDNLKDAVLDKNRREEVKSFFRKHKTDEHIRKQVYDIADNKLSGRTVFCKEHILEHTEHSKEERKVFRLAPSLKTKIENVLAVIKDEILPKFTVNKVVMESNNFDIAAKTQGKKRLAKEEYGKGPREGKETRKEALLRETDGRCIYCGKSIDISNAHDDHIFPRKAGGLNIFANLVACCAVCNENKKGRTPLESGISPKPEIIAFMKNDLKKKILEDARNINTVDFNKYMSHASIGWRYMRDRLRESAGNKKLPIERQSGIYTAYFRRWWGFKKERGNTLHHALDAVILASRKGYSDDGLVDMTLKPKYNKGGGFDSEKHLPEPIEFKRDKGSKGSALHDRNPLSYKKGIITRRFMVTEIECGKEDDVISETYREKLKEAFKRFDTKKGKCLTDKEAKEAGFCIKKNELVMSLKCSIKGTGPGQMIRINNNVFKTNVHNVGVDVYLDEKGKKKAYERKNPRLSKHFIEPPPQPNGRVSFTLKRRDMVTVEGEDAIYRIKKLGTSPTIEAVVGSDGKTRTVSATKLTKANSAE

T3: Nuclease K G42R (G42R)
T3 chain: T2 chain with G42R

T4: Nuclease K D582R (D582R)
T4 chain: T2 chain with D582R

B1: Nuclease K AAVS1-T3 guide ; AAVS1-T3 target (ssRNA ; dsDNA)
RNA: UUGUGAGAAUGGUGCGUCCUGUUACAGUUAAGGCUCUGAAAAGAGCCUUAAUUGUAAAACGCCUAUACAGUGAAGGGAUAUACGCUUGGGUUUGUCCAGCCUGAGCCUCUAUGCCAGAAAUGGCGCCUUCAUCGUGGGUUAGGACAUUUAAAUUUAAAAACUAUUCAGCACUGUUUGCUCUUGUCAGCUUGGUGGCAGA
DNA 1: TTGTGAGAATGGTGCGTCCT
DNA 2: AGGACGCACCATTCTCACAA
B2: Nuclease K EMX1-T7 guide ; EMX1-T7 target (ssRNA ; dsDNA)
RNA: CUUUAGCAAGGGACUAUUCAGUUACAGUUAAGGCUCUGAAAAGAGCCUUAAUUGUAAAACGCCUAUACAGUGAAGGGAUAUACGCUUGGGUUUGUCCAGCCUGAGCCUCUAUGCCAGAAAUGGCGCCUUCAUCGUGGGUUAGGACAUUUAAAUUUAAAAACUAUUCAGCACUGUUUGCUCUUGUCAGCUUGGUGGCAGA
DNA 1: CTTTAGCAAGGGACTATTCA
DNA 2: TGAATAGTCCCTTGCTAAAG

Experiments:
[1] = system: T1, Nuclease M E401R E401R; experiment: cell_activity; settings: PAM TTAAA; HEK293T
[2] = molecular target: T2, Nuclease K; experiment: cell_activity; PAM NGG (AGG); HEK293T; row labelled Reference SEQ ID NO: 1, text says Nuclease K; settings: tags: N-terminal SV40 NLS, C-terminal nucleoplasmin NLS
[3] = molecular target: T3, Nuclease K G42R; experiment: cell_activity; PAM NGG; HEK293T; settings: tags: N- and C-terminal NLS
[4] = molecular target: T4, Nuclease K D582R; experiment: cell_activity; PAM NGG; HEK293T; settings: tags: N- and C-terminal NLS

Molecule	binding signal (fold vs Nuclease M) [1]	activity [2] [indel ratio]	binding signal [3] [fold vs Nuclease K]	binding signal [4] [fold vs Nuclease K]
GAGCCUGGUCCAUGGAGAGUGUCAACUACCCCCGUCUAAAGACGGAGGCAUGAGGUUUCGUAACCAAGUGUUGUACCUGCGGGUACAGUAGUUGAACAGGCGGCGAUGCGGCUGGGCACUCCAGGAUGCCACUCCCAGUCCCGGACACUGCCGACGAGCCGCAUCAAGCCGGGGGAGACCAACCGGCUAACGAUAGCCGAGCAAUUACCUAAAAAGAGGUGCAAAGGAAAUGGUAU / GAGCCTGGTCCATGGAGAGT / ACTCTCCATGGACCAGGCTC [Nuclease M VEGFA-T5 guide ; Nuclease M VEGFA-T5 target]	1.77			
B1		0.037	3.94	3.68
B2			5.3	31.8
